The source of these data is patent US20120190558A1.

For this test, the target named is endogenous KCNH2-1A of rat cortical neurons (rat) (UniProt O08962). As to the kind of experiment: cell-based or functional assay.

For “Isoform 3.1 of KCNH2 (human) (from UniProt Q12809 103-1159)”, the deactivation time constant (tau) of E-4031-sensitive tail current, slow component, at -100 mV of command potential is 7.43 fold and the fold decrease in deactivation time constant (tau) of E-4031-sensitive tail current, fast component, at -100 mV of command potential turned out to be 5.88 fold.
